Source: paper PMC2972695

Experiments:
GST-SHOX2 [1] = target: T1, GST-SHOX2 (UniProt O60902 1-331); experiment: EMSA
GST-SHOX2 [2] = target: T1, GST-SHOX2; experiment: competition

T1 sequence (O60902 whole entry): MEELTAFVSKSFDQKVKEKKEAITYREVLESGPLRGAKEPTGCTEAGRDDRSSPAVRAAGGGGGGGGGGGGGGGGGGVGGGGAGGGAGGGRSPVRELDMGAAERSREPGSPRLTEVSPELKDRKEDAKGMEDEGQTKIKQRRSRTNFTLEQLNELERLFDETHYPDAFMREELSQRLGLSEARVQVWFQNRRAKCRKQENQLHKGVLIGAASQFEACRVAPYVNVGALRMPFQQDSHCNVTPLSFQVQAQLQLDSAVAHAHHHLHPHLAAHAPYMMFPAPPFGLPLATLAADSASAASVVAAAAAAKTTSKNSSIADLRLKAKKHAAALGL

Binder	binding result (GST-SHOX2 [1])	binding result (GST-SHOX2 [2])
BMP4 EMSA oligonucleotide (34 bp conserved promoter motif) (dsDNA) DNA 1: GGGTCTCATTATATTCAAATATTCCTTTTAGGAGCCA DNA 2: GGGTGGCTCCTAAAAGGAATATTTGAATATAATGAGA	binds	–
BMP4 oligonucleotide, unlabelled homologous competitor (dsDNA) DNA 1: GGGTCTCATTATATTCAAATATTCCTTTTAGGAGCCA DNA 2: GGGTGGCTCCTAAAAGGAATATTTGAATATAATGAGA	–	binds
